In the DeepSol protein solubility set:

Assay: soluble on expression in E. coli; label from the status in PepcDB or PDB records

Row | Sequence | soluble on expression in E. coli
1 | METIKALEKFMEFDRLQKDCSDKLDRERERRMKAEREIARKNCGGNPCERELKSERSNVKRLEYQLDAEKEKVKFYKRELERDRYLSSRYLTSSSDPHEKPLPNYTFPRIKNVSPLTTEATGSVEVAPPSTDVTEPISDVTPSVDVEPEHPPAF | not soluble
2 | MAHHHHHHMRVLSLLSALCLVSTCRGHRNLFARNNYLQYLRSQNFMQEKPKFQKLNQNYSEDLNEFDNYEDDELDAENVEATSKERVTQKSGTSSSSSENKLEFKNIEKELNNMGEILHEEKDNLLLMGGGRECSVSDKGTLDVSLNSGDIFNLTKYTVEMSSSGILIRDTQNSNVVKEIAFDTVKLPIETIEETRECWKIRSHKETFLFCERSKEARDRWITNMLKALFCYNTNNLTIDEGVQTGLSSKVDIPKESTVDARIAASLKDEPNGSGDNSSHGRAKRKGNNNITISNLKNDKPEIVVN | not soluble
3 | MDIKACYQNAKALLEGHFLLSSGFHSNYYLQSAKVLEDPKLAEQLALELAKQIQEAHLNIECVCSPAIGGILAGYELARALGVRFIFTERVDNTMALRRGFEVKKNEKILVCEDIITTGKSAMECAKVLEEKGAQIVAFGALANRGICKRAHSHLKAQEGACLPSHLPLFALEDFVFDMHKPSSCPLCATSVAIKPGSRGN | not soluble
4 | GKDWMISAKGTFTFARNILDEVFETEATFNNPNRRRTGRPDGTMFGYNALGYFTYDDFNPDGSLKAGIATQPWGQVYPGDLRYEDLSGPNGVPDGKIDEHDQTVIGFSNWAPEIIFGLAPTVQWKNFDLNALIQGATRTSISLGETLVMPFFDSGSATKLQFSDHWTPDNTNAPYPRLTSEVTVNNHRQPSSWWVRDATYIRLKSIEIGYTLPRSALNFIGISSARVYASGQNLWTWTPFMKELIDPEAKSANGKYYMQQAVYAFGLNITF | not soluble
5 | MGSDKIHHHHHHMFIDKQTVERHFSKSAHLYDGVNHVQRKMAHRLVQLLDEKRRDAKDEPRAILDIGCGTGWLTRECLKSFPQATIDAVDLSKQMLEVAEKNVSSHPNVQFIQGDIEKMVREKPSAKTYDVIVANAVFQWLDKPTETVAQLRSWLKPNGLLLFSTFGPDTFYELHDSFQLAAKQLGIIDERRGLDYLSKTEWKRTLDGLFAELTIHEEKAIESYATVEQFLHTVKKMGATYSQSSRPLSKRYYQLMKEIYEQRYRTEDSIPATYDCLYVLCQA | not soluble
6 | MKPHALIGLLAGMLLSSSLYAADSTKPLPLHIGGRVLVESPANQPVSYTYSWPAVYFETAFKGQSLTLKFDDDQNIFRLIVDDKAPVVINKPGKVDYPVESLAPGKHRVRLEKLTETQSTSGRFLGFYTDPSAKPLALPKRKRQIEFIGDSFTVGYGNTSPSRECTDEELFKTTNSQMAFGPLTAKAFDADYQINASSGFGIVRNYNGTSPDKSLLSLYPYTLNNPDQLYHNKHWKPQVIVIGLGTNDFSTALNDNERWKTREALHADYVANYVKFVKQLHSNNARAQFILMNSDQSNGEIAEQVGKVVAQLKGGGLHQVEQIVFKGLDYSGCHWHPSANDDQLLANLLITHLQQKKGIWLEHHHH | soluble
7 | MSFDGFFLHHIVEELRSELVNGRIQKINQPFEQELVLQIRSNRQSHRLLLSAHPVFGRIQLTQTTFENPAQPSTFIMVLRKYLQGALIESIEQVENDRIVEITVSNKNEIGDHIQATLIIEIMGKHSNILLVDKSSHKILEVIKHVGFSQNSYRTLLPGSTYIAPPSTKSLNPFTIKDEKLFEILQTQELTAKNLQSLFQGLGRDTANELERILVSEKLSAFRNFFNQETKPCLTETSFSPVPFANQVGEPFANLSDLLDTYYKDKAERDRVKQQASELIRRVENELQKNRHKLKKQEKELLATDNAEEFRQKGELLTTFLHQVPNDQDQVILDNYYTNQPIMIALDKALTPNQNAQRYFKRYQKLKEAVKYLTDLIEETKATILYLESVETVLNQAGLEEIAEIREELIQTGFIRRRQREKIQKRKKLEQYLASDGKTIIYVGRNNLQNEELTFKMARKEELWFHAKDIPGSHVVISGNLDPSDAVKTDAAELAAYFSQGRLSNLVQVDMIEVKKLNKPTGGKPGFVTYTGQKTLRVTPDSKKIASMKKS | not soluble
8 | SLGEVPSPQELIEVADAAPNAASGVLKLYRAYREQAQRLSDLSDLLAREGHETALSSTRLPIDEVRHVFENRPAYFHAIDAAAEELHKQLSTGDDLASGLRAWLQKNHGIVVRTLPVHAMPNLRRRYDRHSMRLFLSERLSQPDQLREMAMETCLLALREEIGTELEALGLKGEEARRIARFELARYAAHALMMPYGAFLAAAQRAKYDLDVLRSRFNVSFEQAANRLVSLQRPTTAAIPFFLMEIDNAGNRFRLAGAGGFPRARFGGLCPRLNIHAAFAQPGQVLVESVEMPDGDAFLTVSRTLEGPQAGFGERVRRTAVLLGCDLGQAGETVYGPAASGAAPVAIGPSCRLCERQGCLSRAEAPLTRPLGLDEMVTGLSVFDFQ | soluble
9 | MGSDKIHHHHHHMEIIAHRGFRGRYPEMTAQAYEKACELPIHGVECDVRLTADGHLACVHDRTLLRIASCGLVVSTATMDQLREHGIITLDELIDILPEDKHLYIETKHPMRYGVMAEEQVALRLRYRGLLHDPRFHLISFSHAAIRRMGRIAPGFDTIYLRREWELRYNPKDFAISRPSAWGLSLAHAKIRPQLIGRDGKKTYMWTVNDADDVRWARDNGVQLLATDYPDVALEALAQ | not soluble
10 | GFIDTHLHVESSLVTPFEFDRCVTPRGITTAICDPHEIANVCGLEGIRYFLEASAHLVMDLRVQLSSCVPSTHMETAGAALEAKDLAPLMDHPRVIGLAEFMNFPGVLMKDPGCMAKLEAFRGRHIDGHAPLLRGKDLNGYIAAGIRTEHEATTAEEALEKLRKGMRVLIREGSVSKDLHALVSILTERHAPYLCLCTDDRNPLDIAEHGHIDHMIRTAIRLGAPPLAVYRAASLSAADAFGLKDRGLIAPGRRADIAVLD | not soluble
11 | MSLKENKYDDKHFFEQYSQMPRSKEGLKAAGEWHELKKMLPDFNQKTVLDLGCGFGWHCIYAAEHGAKKVLGIDLSERMLTEAKRKTTSPVVCYEQKAIEDIAIEPDAYNVVLSSLALHYIASFDDICKKVYINLKSSGSFIFSVEHPVFTADGRQDWYTDETGNKLHWPVDRYFNESMRTSHFLGEDVQKYHRTVTTYIQTLLKNGFQINSVIEPEPAPELKDLPEMQDEYRRPMMLLISATKQEGHHHHHH | soluble
12 | MGVEQILKRKTGVIVGEDVHNLFTYAKEHKFAIPAINVTSSSTAVAALEAARDSKSPIILQTSNGGAAYFAGKGISNEGQNASIKGAIAAAHYIRSIAPAYGIPVVLHSDHCAKKLLPWFDGMLEADEAYFKEHGEPLFSSHMLDLSEETDEENISTCVKYFKRMAAMDQWLEMEIGITGGEEDGVNNENADKEDLYTKPEQVYNVYKALHPISPNFSIAAAFGNCHGLYAGDIALRPEILAEHQKYTREQVGCKEEKPLFLVFHGGSGSTVQEFHTGIDNGVVKVNLDTDCQYAYLTGIRDYVLNKKDYIMSPVGNPEGPEKPNKKFFDPRVWVREGEKTMGAKITKSLETFRTTNTL | soluble
13 | MRPLDENLRTSAASRPAQSLSVRGQPEAESGAFGEAIADAGRRRTQGQGGQTSADDARRDSVANGGNASAVPKADGFGADVPASTADAASPDARPAYERAIITRDQAAKRLQHSHPAGTRHLSQGREDGGEEIAQPAERAVVRSRETVQTSRDSVDEASGVTAREGGENGDPASGTVSDLLSMLTGAAPAVAAASQPEGRAKPASAVRDGSDGPAKAVGGISPAVPDGEHPQTGEGTGGSEPDRLFRFARADGKGQAVSMNISRDGERAVVENSRSSVKPGVETVTVLEARRYLGLAVNENATSVTTAIAGDSGWAEALQSSAATTKPEAWSQAGKTLNTLKIQMHPVDLGMVTATLRLKDDELQVDLKVETGEAFRQLRDDQSEMVKALRAQGFAVDQVNIVFNGGGDSASGGGGQSQAQAQLGYEGRERAGDDGQGRQPRDGGRAATERWAGNDATDDVPDGAERSRAGHVYM | not soluble
14 | MGLIVDDDNDGEVLIPPPNFSMVEDEIYRSGFPELENFGFLSTLNLRSIIYLCPEPYPEDNLKSLASNNIKLFQFGIEGKTDPPTPMPKDTVLSALRVLVDVRNHPILIHCKRGKHRTGCLVGCLRKVQNWCLSSVLEEYQKCAGLKWRQRDLRFIEDFDVLRLKQCLYSIIYQYNGYGLKRRKLLYQEENVVQEQQKPQATKG | soluble
15 | EVRLVSLRRAKAHEGLGFSIRGGSEHGVGIYVSLVEPGSLAEKEGLRVGDQILRVNDKSLARVTHAEAVKALKGSKKLVLSVYSAGRI | soluble
16 | MSLQDSLFQTETGFQPLAARMRPTSLEGYVGQAHLVGPGKPLRRAVEQGQLHSMILWGPPGVGKTTFARLLANVGDLSFETISAVLSGVKEIREVVERARNRKQSQGRDTLLFVDEVHRFNKSQQDAFLPHIEDGTFIFVGATTENPSFELNSALLSRTRVYVLKNLEAADIRRLLDSALESEQGFAGQLRVEESVLATMAEASGGDARRALNILEVAADLAEPDDDGNNRVTAQTLEQVLQTSLRRFDKGGDVFYDQISALHKSVRGSNPDGSLYWLCRMLDGGCDPLYVARRLVRIASEDIGNADPRALQITLQAWDAQERLGSPEGELALAQAVTYLALAPKSNAVYKAYNQCIADIRSDPDYEVPVHLRNAPTKLLKSMGHGEEYRYAHDEPDAYAAGEAYLPEAIYQRRYYQPVQRGLEIKLAEKRERLDSLDANSPKKREGHHHHHH | soluble
17 | PYPIDLVSVVIPVYNEEASLPELLRRTEAACLELGRAFEIVLVDDGSRDRSAELLQAAAERDGSAVVAVILNRNYGQHAAILAGFEQSRGDLVITLDADLQNPPEEIPRLVERAAQGYDVVGSIRAERQDSAWRRWPSRLVNLAVQRSTGVAMHDYGCMLRAYRRSIVEAMLACRERSTFIPILANGFARHTCEIRVAHAERAHGESKYSAMRLLNLMFDLVTCMTTTPLR | not soluble
18 | MASETIHFSFANADVYIVARSPNNQNGTGDDTMSYSAKSFSALINAMRADGITRLEQLARQPFRNAQGFWSAEVKK | not soluble
19 | MGSDKIHHHHHHMKTIEVLSLRKYFPIRKGFLVKKIVGYVKAVDDISFSVEKGKTFALVGESGCGKTTTAKTILRLTNPTAGRVVIDGDDTTYYFMKRRDAENYLETTYVDIFREMREKLSPDQIVDVLEDVDKKYAEIFFKEAKESEEKFYQILLDDIDEKRMKFRRKIQIVFQDPMSSLNPRMTVGDILTEPILFHGLAKTREEAVDMAKDLLKSVGLKEYHLERYPHQFSGGQRQRIAIARAISINPEIVILDEPTASLDVSVQAQVINLFLKLQEEKGFTYLFISHDLGLVRFISHEVGIMYLGRIVEMGNTDEIFDNPLHPYTQALLSAVPVPDPKVERTRKRIILRGGVPSPINRPTGCFFHPRCPYKMPVCEKEYPVMKEISPGHWVACHLHSS | not soluble
20 | MGSDKIHHHHHHMEAVKTGIEGFDDIFGGFYRGQIILIAGNPGSGKTTFCAKFLYEGARRFGENGLYISIGESKEEFYEYMKKLGMDFEKLEKTGSFKYVEMLAPTSEDALMQLSRELTKNALELKATRIVIDSISPILSMNPETARAILHNALKTISRELKSVVLMTEEMPIGETRIGQGIEEFVVDGVIVLRLEVPEAGAPVRTMSVLKLRGKPLDRAVYNFEIGPPSGVRVLMHGIEELESNIDFNNKIATGIDGFDELLGGGIIRGTATAFVGPSGGGKTVLMLSAAANVAINGENVTYISFEEPRQQIEETLKFLGYGEVEGLEILSLNPRMISLRALYDILSKTVLDHRTMLFIDGLNAIRREFGEAFHRVVRDVVFQMKKNGITVVISLIGGTIKETLLSTIVDNVVELRVVEKDGELRREIAVRKARMSRASNEVKRLVFDGKPAVR | not soluble
21 | MSLGFVPVRGLHHFAYRCRDAEETRQFYEGILGLPLVHVVRAEEVPSTGEYCPYMHLFFEMKDGSCVAFFDLDDDTVPLPSSNTPVWAQHLALRVDSVAAVEEAKRKLEQAGVKVLGPVDHDGFVCSIYFFDPNGVRLELTTDTAEGHHHHHH | soluble
